# T1: PA-hST8Sia VI (human ST8Sia VI) (Homo sapiens, UniProt P61647, L267F)
# T1 construct: amino acids 68-398 in the case of human ST8Sia VI; signal peptide of mouse immunoglobulin IgM (N); made in house; host or cells: COS-7 cells, transient expression of pcDSA-hST8Sia VI; protein recovered from medium on IgG-Sepharose
# T1 sequence (P61647 68-398 L267F): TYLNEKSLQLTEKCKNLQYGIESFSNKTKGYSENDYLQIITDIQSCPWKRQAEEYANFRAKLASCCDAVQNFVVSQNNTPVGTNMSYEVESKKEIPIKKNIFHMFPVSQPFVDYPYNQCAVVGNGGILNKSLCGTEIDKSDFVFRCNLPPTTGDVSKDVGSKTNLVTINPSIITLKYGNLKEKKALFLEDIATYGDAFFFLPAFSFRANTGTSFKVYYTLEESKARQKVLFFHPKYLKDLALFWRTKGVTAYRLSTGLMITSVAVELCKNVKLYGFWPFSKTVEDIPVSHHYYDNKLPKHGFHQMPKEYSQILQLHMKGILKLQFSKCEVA
# T2: human ST6Gal I (Homo sapiens, UniProt P15907)
# T2 sequence (P15907 1-406): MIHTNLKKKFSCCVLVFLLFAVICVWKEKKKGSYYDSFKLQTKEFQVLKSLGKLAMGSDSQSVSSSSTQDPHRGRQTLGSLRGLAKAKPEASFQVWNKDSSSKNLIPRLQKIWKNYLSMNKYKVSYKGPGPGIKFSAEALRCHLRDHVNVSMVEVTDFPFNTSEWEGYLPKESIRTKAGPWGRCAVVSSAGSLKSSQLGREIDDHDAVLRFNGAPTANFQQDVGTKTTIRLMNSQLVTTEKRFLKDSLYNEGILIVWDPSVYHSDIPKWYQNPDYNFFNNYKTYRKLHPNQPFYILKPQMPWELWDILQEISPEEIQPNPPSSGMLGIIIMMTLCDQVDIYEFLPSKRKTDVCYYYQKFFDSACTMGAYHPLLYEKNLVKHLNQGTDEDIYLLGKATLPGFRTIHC
# Tests used:
# [1] = target: T1, PA-hST8Sia VI (human ST8Sia VI); test: Sialyltransferase activity of PA-hST8Sia VI toward acceptor substrates; format: biochemical; details: incorporation with Fetuin taken as 100, substrate 0.5 mg/ml glycolipids, 1 mg/ml glycoproteins, monosaccharides and oligosaccharides
# Protocol: Using each expression vector and lipofectamine (Invitrogen), transient expression was carried out in COS-7 cells (Kojima, N. et al. (1995) FEBS Lett. 360, 1-4). The proteins of the present invention secreted from the cells into which each expression vector had been introduced were named as PA-mST8Sia VI (mouse) and PA-hST8Sia VI (human). PA-mST8Sia VI and PA-hST8Sia VI were adsorbed to IgG-Sepharose (Amersham Pharmacia Biotech), and were then recovered from medium. Sialyltransferase activity was measured as follows according to the method of Lee et al. (Lee, Y.-C. et al. (1999) J. Biol. Chem. 274, 11958-11967). A reaction solution (10 μl) containing 50 mM MES buffer (pH 6.0), 1 mM MgCl2, 1 mM CaCl2, 0.5% Triton CF-54, 100 μM CMP-[^14C]-NeuAc, a glycoconjugate (which was added at 0.5 mg/ml in the case of glycolipids, and at 1 mg/ml in the case of glycoproteins or oligosaccharides), and a PA-mST8Sia VI or PA-hST8Sia VI suspension, was incubated at 37° C. for 3 to 20 hours. Thereafter, in the case of glycolipids, the reaction product was purified with a C-18 column (Sep-Pak Vac 100 mg; Waters) and the purified product was used as a sample, and in the case of oligosaccharides or glycoproteins, the reaction product was directly used as a sample. Thus, the obtained samples were subjected to analysis. In the case of oligosaccharides or glycolipids, the sample was spotted on a silica gel 60 HPTLC plate (Merck), and was then developed with a developing solvent consisting of ethanol:pyridine:n-butanol:water:acetic acid=100:10:10:30:3 (for oligosaccharides), a developing solvent consisting of 1-propanol:ammonia water:water=6:1:2.5 (for oligosaccharides), or a developing solvent consisting of chloroform:methanol: 0.02% CaCl2=55:45:10 (for glycolipids). In the case of glycoproteins, analysis was carried out by SDS-polyacrylamide gel electrophoresis. The obtained radioactivities were visualized with a BAS2000 radio image analyzer (Fuji Film) and then quantified.
# [2] = target: T2, human ST6Gal I; test: Sialyltransferase activity of human ST6Gal I toward acceptor substrates (comparison); format: biochemical; details: incorporation with Galβ1,4GlcNAc taken as 100; 0.5 mg/ml glycolipids, 1 mg/ml glycoproteins and oligosaccharides
# Protocol: Using each expression vector and lipofectamine (Invitrogen), transient expression was carried out in COS-7 cells (Kojima, N. et al. (1995) FEBS Lett. 360, 1-4). The proteins of the present invention secreted from the cells into which each expression vector had been introduced were named as PA-hST6Gal II (human) and PA-mST6Gal II (mouse). PA-hST6Gal II and PA-mST6Gal II were adsorbed to IgG-Sepharose (Amersham Pharmacia Biotech), and were then recovered from medium. Sialyltransferase activity was measured as follows according to the method of Lee et al. (Lee, Y.-C. et al. (1999) J Biol. Chem. 274, 11958-11967). A reaction mixture (10 μl) containing 50 mM MES buffer (pH 6.0), 1 mM MgCl2, 1 mM CaCl2, 0.5% Triton CF-54, 100 μM CMP-[^14C]-NeuAc, a substrate sugar chain (which was added at 0.5 mg/ml in the case of glycolipids, and at 1 mg/ml in the case of glycoproteins or oligosaccharides), and a PA-hST6Gal II or PA-mST6Gal II suspension, was incubated at 37° C. for 3 to 20 hours. Thereafter, in the case of glycolipids, the reaction product was purified with a C-18 column (Sep-Pak Vac 100 mg; Waters) and the purified product was used as a sample. In the case of oligosaccharides or glycoproteins, the reaction product was directly used as a sample. Thus, the obtained sample was subjected to analysis. In the case of oligosaccharides or glycolipids, the sample was spotted on a silica gel 60 HPTLC plate (Merck), and it was then developed with a developing solvent consisting of 1-propanol:ammonia water:water=6:1:2.5 (for oligosaccharides), or a developing solvent consisting of chloroform:methanol: 0.02% CaCl2=55:45:10 (for glycolipids). In the case of glycoproteins, analysis was carried out by SDS-polyacrylamide gel electrophoresis. The obtained radioactivities were visualized with a BAS2000 radio image analyzer (Fuji Film) and then quantified.
# In contrast, there were no glycolipids, which could be substrates of both the enzymes, as far as the inventors have examined. The activity of human ST6Gal I on oligosaccharides was also examined for comparison. […] (FIG. 10).
Relative rate (%) Human ST8Sia VI [1] [%],Relative rate (%) Human ST6Gal I [2] [%],Molecule
0,93.0,Asialo- α1-Acid glycoprotein: desialylated α1-acid glycoprotein prepared at 80° C. for 1 hour in 0.02 N HCl
0,95.0,Asialofetuin: asialo glycoprotein acceptor substrate purchased from Sigma
100,13.0,"Fetuin: glycoprotein acceptor substrate containing both O-glycans and N-glycans, purchased from Sigma"
,0,"Galβ1,4Glcβ1-Cer [Lactosylceramide]"
0,37.1,α1-Acid glycoprotein: glycoprotein acceptor substrate purchased from Sigma

# Second part, the molecule before the results:
Molecule,Relative rate (%) Human ST8Sia VI [1] [%],Relative rate (%) Human ST6Gal I [2] [%]
"Galβ1,3GalNAcβ1,4(NeuAcα2,3)Galβ1,4Glcβ1-Cer [GM1a]",,0
"NeuAcα2,3Galβ1,4Glcβ1-Cer [GM3]",1.6,0
"Ovomucoid: glycoprotein acceptor substrate which contains only N-glycans (protein, UniProt P01005 25-210, looked up) Ovomucoid: AEVDCSRFPNATDKEGKDVLVCNKDLRPICGTDGVTYTNDCLLCAYSIEFGTNISKEHDGECKETVPMNCSSYANTTSEDGKVMVLCNRAFNPVCGTDGVTYDNECLLCAHKVEQGASVDKRHDGGCRKELAAVSVDCSEYPKPDCTAEDRPLCGSDNKTYGNKCNFCNAVVESNGTLTLSHFGKC",12.3,9.0
"Asialoovomucoid: desialylated ovomucoid prepared at 80° C. for 1 hour in 0.02 N HCl (protein, UniProt P01005 25-210, looked up, desialylated, desialylated ovomucoid prepared at 80° C. for 1 hour in 0.02 N HCl) Ovomucoid: AEVDCSRFPNATDKEGKDVLVCNKDLRPICGTDGVTYTNDCLLCAYSIEFGTNISKEHDGECKETVPMNCSSYANTTSEDGKVMVLCNRAFNPVCGTDGVTYDNECLLCAHKVEQGASVDKRHDGGCRKELAAVSVDCSEYPKPDCTAEDRPLCGSDNKTYGNKCNFCNAVVESNGTLTLSHFGKC",0,12.7
